From US11906524B2, “Urea biosensors and uses thereof” (Duke University, priority 2015, dated 2024)
Positions count from the first letter of the chain named. Names and notes keep the numbering of the source. Where two headings read alike, the source gives them in different places. One block for each molecule: values may come before it.

Experiments:
[1] = Urea titration of emission intensity spectra (Nanodrop3300) with ratiometric analysis, singly labeled conjugates; assay type: binding; set-up: key: m, monochromatic; d, dichromatic (i.e. spectral shape change); details: urea response
Description: (§1) Determination of emission intensity spectra.
(§2) Ratiometric analysis of urea binding. […] 2
(§3) For a single urea-binding site, the fractional saturation is given by
(§4) [formula] where [L] is the ligand (urea) concentration and Kd the dissociation constant, ^trueKd for ytrue.
(§5) [formula] where ^appIλ2 and ^satIλ2 are the emission intensities of the monochromatic signal at wavelength λ2 of the ligand-free and ligand-bound protein, respectively.

[2] = Temperature- and urea-dependent fluorescence landscapes of fluorescent conjugates (Roche LightCycler); assay type: binding; set-up: key: y, yes; n, no; details: Acrylodan conjugate; fluorescent response to urea
Method in brief: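 Acrylodan or Badan was attached to single-cysteine csUBP7 mutants and fluorescence was recorded over 0–4.8 M urea in 20 mM KCl, 20 mM MOPS (pH 7.4), with temperature stepped by 1K. Urea Kd came from ratiometric single-site fits, and Kd values across temperatures were fit to the Gibbs-Helmholtz equation.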

[3] = Urea titration of emission intensity spectra (Nanodrop3300) with ratiometric analysis, singly labeled conjugates; assay type: binding
Description: as §1, §2, §3, §4, §5

[4] = as above; assay type: binding; set-up: key: m, monochromatic; d, dichromatic (i.e. spectral shape changes); 0, no change; details: urea response
Description: as §1, §2, §3, §4, §5

[5] = Thermal stability of purified UBP candidates (SYPRO Orange thermal melt, Roche LightCycler); assay type: physicochemical; details: apo-protein; SYPRO Orange monitors unfolded protein
Experimental: The urea-binding properties of these leads were determined experimentally (Table 4). These experiments comprise four successive steps: • 1. Synthetic gene construction. […] Heterologous protein expression of the homologues in E. coli. […] Verification of urea binding.
Analysis of urea-binding properties using thermal melts.

[6] = ctUBP6 Acrylodan conjugate, urea, nb = no binding, read-out: ^appKd
[7] = ctUBP6 Badan conjugate, urea, ^d = noisy data and or bad fit, read-out: ^appKd
[8] = ctUBP6 Badan conjugate, urea, ^d = noisy data and or bad fit, read-out: ^trueKd
[9] = ctUBP6 Acrylodan conjugate, urea, nb = no binding, read-out: ^trueKd
[10] = ctUBP6 Acrylodan conjugate, urea, nb = no binding

B2: ctUBP6 W95C: ctUBP6 95C cysteine mutant (SEQ ID NO: 49), tested as Acrylodan and Badan conjugates (conjugate)
chain: MVEEPVDNKPGTDTSAEDTIKVGILHSLSGTMAISEVSLKDAELMAIEEINQAGGLLGKKIEPVIEDGASDWPTFAEKAKKLLQNDKVATVFGCCTSASRKAVLPVFEENNGLLWYPVQYEGMESSPNIFYTGAAPNQQIVPAVEWLLENKGKRFFLLGSDYVFPRTANKIIKAQLSAIGGELIAEEYTPLGHTDYSTIVNKIKTAKPDVVFNTLNGDSNVAFFKQLKDAGITSEDITVCSVSVAEEEIRGIGAENIKGHLVSWNYYQTTDTPENKEFVEKYKSKYGSDRVTDDPIEAAYIAVHLWAEAVKKAGSFEVEKVKEAAKGLEFKAPEGLVKIEGENQHLWKPVRIGEVQEDGLIKEIWSTSEAVRPDPYLKTYDWAKGLSDGGSHHHHHH
modifications: Acrylodan or Badan conjugate; ctUBP6_95C (95C substitution mutant with signal peptide replaced with M and a GGSHHHHHH at C-terminus)
Shape ([4]; ctUBP6 Acrylodan conjugate): m | Shape ([4]; ctUBP6 Badan conjugate): m | Response [2]: y

B4: ctUBP6 F164C: ctUBP6 164C cysteine mutant (SEQ ID NO: 53), tested as Acrylodan and Badan conjugates (conjugate)
chain: B2 chain with C95W, F164C
modifications: Acrylodan or Badan conjugate; ctUBP6_164C (164C substitution mutant with signal peptide replaced with M and a GGSHHHHHH at C-terminus)
Shape ([1]; ctUBP6 Acrylodan conjugate): d | Shape ([1]; ctUBP6 Badan conjugate): d | Response [2]: y | Kd [3, 6]: 23 mM | Kd [3, 9]: 22 mM | Kd [3, 7]: 9.4 mM | Kd [3, 8]: 11 mM

B6: ctUBP6 A98C: ctUBP6 98C cysteine mutant (SEQ ID NO: 52), tested as Acrylodan and Badan conjugates (conjugate)
chain: B2 chain with C95W, A98C
modifications: Acrylodan or Badan conjugate; ctUBP6_98C (98C substitution mutant with signal peptide replaced with M and a GGSHHHHHH at C-terminus)
Shape ([4]; ctUBP6 Acrylodan conjugate): m | Shape ([4]; ctUBP6 Badan conjugate): m | Response [2]: y | ^appKd [3, 10]: nb | ^trueKd [3, 10]: nb

B7: bsUBP3: urea-binding protein from Bacillus sp., SEQ ID NO: 14 (protein)
chain: MKVGILHSLSGTMAISEVSVHDAELIAIQEINQKGGVLGKKLEPVVEDGASDWPTYAEKMRKLLQQDKVAAVFGGWTSASRKAMLPVVEQNNGLLFYPVQYEGMETSPNIFYTGATTNQQIVPAVDWLLKNKGKKFFLIGSDYVFPRTANKIIKAQVKAGGGEIAGEEYTPLGHTNYSTLVSKIKEKQPDVIFNTLNGDSNVAFFKQLKDAGISADDMPVMSASVAEEEIRGIGPDVLKGHYAVWNYFQTTNTSENQTFVKNYKKMNGDSRVTSDPIEAGYNAVYLWAAAVEKAKSFDVDKVKKAADGISFKAPGGTVKIDGDTQHLYKTVRIGQITGDGQFKEVWNSGEPVKPDPYLKTYDWAKGLSKGGSHHHHHH
modifications: bsUBP3 (with signal peptide replaced with M and a GGSHHHHHH at C-terminus)
Thermostability ^apoTm [5]: 51 °C

More lines, main results first:

Kd [3, 6]: 0.52 mM | Kd [3, 7]: 0.62 mM | Kd [3, 8]: 0.5 mM
B1: ctUBP6 T96C: ctUBP6 96C cysteine mutant (SEQ ID NO: 50), tested as Acrylodan and Badan conjugates (conjugate)
chain: B2 chain with C95W, T96C
modifications: Acrylodan or Badan conjugate; ctUBP6_96C (96C substitution mutant with signal peptide replaced with M and a GGSHHHHHH at C-terminus)
Shape ([1]; ctUBP6 Acrylodan conjugate): d | Shape ([1]; ctUBP6 Badan conjugate): d | Response [2]: n

Kd [3, 6]: 79 mM | Kd [3, 9]: 84 mM | Kd [3, 7]: 69 mM | Kd [3, 8]: 95 mM
B3: ctUBP6 S97C: ctUBP6 97C cysteine mutant (SEQ ID NO: 51), tested as Acrylodan and Badan conjugates (conjugate)
chain: B2 chain with C95W, S97C
modifications: Acrylodan or Badan conjugate; ctUBP6_97C (97C substitution mutant with signal peptide replaced with M and a GGSHHHHHH at C-terminus)
Shape ([4]; ctUBP6 Acrylodan conjugate): m | Response [2]: n | Shape ([3]; ctUBP6 Badan conjugate, urea response): m/d

Kd [3, 6]: 0.15 mM | Kd [3, 9]: 0.11 mM | Kd [3, 7]: 0.31 mM | Kd [3, 8]: 0.34 mM
B5: ctUBP6 L191C: ctUBP6 191C cysteine mutant (SEQ ID NO: 54), tested as Acrylodan and Badan conjugates (conjugate)
chain: B2 chain with C95W, L191C
modifications: Acrylodan or Badan conjugate; ctUBP6_191C (191C substitution mutant with signal peptide replaced with M and a GGSHHHHHH at C-terminus)
Shape ([4]; ctUBP6 Acrylodan conjugate): m | Shape ([4]; ctUBP6 Badan conjugate): m | Response [2]: y
